Biological target: the molecule itself
Assay: crystal structure; Chl b-reconstituted WSCP crystallised by hanging-drop vapour diffusion (Lv-wt: 0.1 M Na/K phosphate pH 6.0, 3.0 M (NH4)2SO4, 4.7% sucrose; Bo-wt: 0.1 M (NH4)H2PO4 pH 4.5, 10% PEG 3350); data at 100 K; molecular replacement with the Chl a complexes

B1: Water-Soluble Chlorophyll Protein (WSCP) from Brassica oleracea var. botrytis, wild type, reconstituted with Chl b (natural protein)
chain: REQVKDSNGNPVKRGAKYFIQPAKSNGGGLVPAAINILPFCPLGITQTLLPYQPGLPVSFGYEPVIVGTDYIYTSTTINIEFRSEIWPVCNELSKLWAVDVSSSAAKEPAIIIGGERTAPNSLFKIEEATGAHTYKLTTSSGTVGTIPGPWLGAPQLIATNDDAKTLFVKFVKVDDDAT
notes: Water-Soluble Chlorophyll Protein (WSCP), Brassica oleracea var. botrytis (cauliflower), wild type; also called Bo-wt; Chl b Bo-wt; source: E. coli, overexpressed, purified; apoprotein reconstituted with Chl b
- binding result: binds
